Molecular target: the molecule itself
Assay: cryo-EM structure

B1: F plasmid TraT protein complex (TraT-TS) (natural protein)
chain: CGAMSTAIKKRNLEVKTQMSETIWLEPASERTVFLQIKNTSDKDMSGLQGKIADAVKAKGYQVVTSPDKAYYWIQANVLKADKMDLRESQGWLNRGYEGAAVGAALGAGITGYNSNSAGATLGVGLAAGLVGMAADAMVEDVNYTMITDVQIAERTKATVTTDNVAALRQGTSGAKIQTSTETGNQHKYQTRVVSNANKVNLKFEEAKPVLEDQLAKSIANIL
modifications: lipid anchor on the N-terminal cysteine (density not resolved)
notes: also called TraTF; TraT exclusion protein complex; copies: 10
stoichiometry N: 10
